{"source": "the nanobody polyreactivity screen of Harvey et al. (2022)"}
{"assay": "yeast display, Sf9 membrane polyspecificity reagent, FACS + sequencing; frameworks hold sequencing errors", "how_it_was_run": "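Nanobodies from a synthetic yeast display library (Saccharomyces cerevisiae BJ5465), induced 36–48 hours with galactose, were stained 1 hour at 4 °C with 10% biotinylated, detergent-solubilized Sf9 membrane reagent, enriched on streptavidin microbeads, then FACS-sorted. Anti-HA (expression) and streptavidin (reagent binding) fluorescence set low and high (top ~1%) gates. Polyreactivity labels come from the gate of origin. Genes were colony-PCR amplified, MiSeq 2 × 250 sequenced and filtered by CDR length.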"}
{"sequence": "QVQLVESGGGLVQAGGSLRLSCAASGRIFRFYAMGCYIQAPGKERELVAVITARGGSTYYADSVKGRFTISRDNAKNNVYLQMNSLKPEDTAVYYCASTRVKGYTVVKSRRGEIDYWGQGTQVTVSS", "polyreactivity (PSR sort gate)": "high polyreactivity"}
{"sequence": "QVQLVESGGGLVQAGGSLRLSCAASGRIFRFYAMGWYRQAPGKERELVAAISSSAGGTYADSVKGRFTISRDYAKNTVYLQMNSRKPEDTAVYYCAARAYALYDWGQGTQVTVSS", "polyreactivity (PSR sort gate)": "high polyreactivity"}
{"sequence": "QVQLVESGGGLVQAGGSLRLSCAASGRIFRGNAMGWFRQAPGKERELVASISTSGVRTFYADSVKGRFTISRDNAKNTVYLQMNSLKPEDTAVYDCNKRDRYRMYGFNYWGQGTQVTVSS", "polyreactivity (PSR sort gate)": "high polyreactivity"}
{"sequence": "QVQLVESGGGLVQAGGSLRLSCAASGRIFRGNAMGWYRQAPGKERELVATITKRGGSTYYADSVKGRFTISRDNAKNTVYLQMNSLKPEDTAVYYCNTRTYGYLTQKYDYWGQGTQVTVSS", "polyreactivity (PSR sort gate)": "high polyreactivity"}
{"sequence": "QVQLVESGGGLVQAGGSLRLSCAASGRIFRGNVMGWYRQAPGTERELVAAISGSGGSTYYADSVKGRFTISRDNAKNTVYLQMNSLKPEDTAVYYCAAGTAKTPRRSVGYWGQGTQVTVSS", "polyreactivity (PSR sort gate)": "high polyreactivity"}
{"sequence": "QVQLVESGGGLVQAGGSLRLSCAASGRIFRGYAMGWYRQAPGKERELVAAISQSGSSTYYADSVKGRFTISRDNAKNTVYLQMNSLKPEDTAVYYCAVKYLKHFGYWGQGTQVTVSS", "polyreactivity (PSR sort gate)": "high polyreactivity"}
{"sequence": "QVQLVESGGGLVQAGGSLRLSCAASGRIFRGYAMGWYRQAPGKERELVAAISRGGNTDYADSVKGRFTISRDNAKNTVYLQMNSLKPEDTAVYYCAVGYVSYRKFYLYNSWGQGTQVTVSS", "polyreactivity (PSR sort gate)": "high polyreactivity"}
{"sequence": "QVQLVESGGGLVQAGGSLRLSCAASGRIFRGYAMGWYRQAPGKERELVADISSGASTNYADSVKGRFTISRDNAKKTVYFQMNSLKPEDTAVYYCAAQHSVLAYFEDDYWGQGTQVTVSS", "polyreactivity (PSR sort gate)": "low polyreactivity"}
{"sequence": "QVQLVESGGGLVQAGGSLRLSCAASGRIFRGYAMGWYRQAPGKERELVADISSGASTNYADSVKGRFTISRDNAKNTVYFQMNSLKPEDTAVYYCAAQHSVLAYFEYDYWGQGTQVTVSS", "polyreactivity (PSR sort gate)": "low polyreactivity"}
{"sequence": "QVQLVESGGGLVQAGGSLRLSCAASGRIFRGYAMGWYRQAPGTERELVAAITRGGSTKYADSVKGRFTISRDNAKNTVYLQMNSLKPEDTAVYYCAKDSYPYVPLYRSRSLYGYWGQGTQVTVSS", "polyreactivity (PSR sort gate)": "high polyreactivity"}
{"sequence": "QVQLVESGGGLVQAGGSLRLSCAASGRIFRHYGMGWYRQAPGKERELVARITRSGGSTYYADSVKGRFTISRDNAKNTVYLQMTSLKPEDTAVYYCAAFTYGESWYDYWGQGTQVTVSS", "polyreactivity (PSR sort gate)": "low polyreactivity"}
{"sequence": "QVQLVESGGGLVQAGGSLRLSCAASGRIFRIYAMGWYRQAPGKERELVARITYSGGSTYYADSVKGRFTISRDNAKNTVYLQMNSLKPEDTAVYFCAADWLGYQYGYWGQGTQVTVSS", "polyreactivity (PSR sort gate)": "low polyreactivity"}
{"sequence": "QVQLVESGGGLVQAGGSLRLSCAASGRIFRIYTMGWYRQAPGKERELVAAITKSGGSTSYADSVKGRFTISRDNAKNTVYLQMNILKPEDTAVYYCNAKGWTRPPGYDYWGQGTQVTVSS", "polyreactivity (PSR sort gate)": "high polyreactivity"}
{"sequence": "QVQLVESGGGLVQAGGSLRLSCAASGRIFRIYTMVWYRQAPGKERELVAVINSSGGRTYYADSVKGRFTISRDNAQNTVYLQMNSLKPEDTAVYYCNAVFGGGTMDYWGQGTQVTVSS", "polyreactivity (PSR sort gate)": "high polyreactivity"}
{"sequence": "QVQLVESGGGLVQAGGSLRLSCAASGRIFRKYAMGWSRQAPGKEREFVAAISSSGGITYYADSVKGRFTISRDNAKNTVYLQMNSLKPEDTAVYYCADLYPQHRYDYWGQGTQVTVSS", "polyreactivity (PSR sort gate)": "high polyreactivity"}
{"sequence": "QVQLVESGGGLVQAGGSLRLSCAASGRIFRKYAMGWYIQAPGKEREFVASIRSRGDSTYYADSVKGRFTISRDNAKNTVYLQMNSMKPEDTAVYYCAAVSGSGYDYWGQGTQVTVSS", "polyreactivity (PSR sort gate)": "high polyreactivity"}
{"sequence": "QVQLVESGGGLVQAGGSLRLSCAASGRIFRLYAMGWSRQAPGKERELVAAISSSGGDTYYADSVKGRFTISRDNAKNTVYLQMNSLKPEDTAVYYCNARKRYANVHYNYWGQGTQVTVSS", "polyreactivity (PSR sort gate)": "high polyreactivity"}
{"sequence": "QVQLVESGGGLVQAGGSLRLSCAASGRIFRLYTMGWYRPAPGKERELVAAISGSGGRTYYADSVKGRFTISRDNAKNTVYLQMNSLKPEDTAVYYCAKVGYKSPYLYSQHYTGFGYWGQGTQVTVSS", "polyreactivity (PSR sort gate)": "high polyreactivity"}
{"sequence": "QVQLVESGGGLVQAGGSLRLSCAASGRIFRPNAMGWYRQAPGKERELVAAITSNGGRTYYADSVKGRFTISRDNAKNTVYLQMNSLKPEDTAVYYCNAAPFRSGYGYWGQGTQVTVSS", "polyreactivity (PSR sort gate)": "high polyreactivity"}
{"sequence": "QVQLVESGGGLVQAGGSLRLSCAASGRIFRPYAMGWYRQAPGKERELVAAISVSGVITYYADSVKGRFTISRDNAKNTVYLQMNSLKPEDTAVYYCARRSSTRYFYGWYDYWGQGTQVTVSS", "polyreactivity (PSR sort gate)": "low polyreactivity"}
{"sequence": "QVQLVESGGGLVQAGGSLRLSCAASGRIFRPYAMGWYRQAPGKERELVASISWRGSSTYYADSVKGRFTISRDNAKNTVYLQMNSLKPEDTAVYYCAARRYPTSGYAYWGQGTQVTVSS", "polyreactivity (PSR sort gate)": "high polyreactivity"}
{"sequence": "QVQLVESGGGLVQAGGSLRLSCAASGRIFRRNAMGWYRQAPGKEREFVAAISYRGGSTYYADSVKGRFTISRDNAKNTVYLQMNSLKPEDTAVYYCAATGYGSAYNPYDHWGQGTQVTVSS", "polyreactivity (PSR sort gate)": "high polyreactivity"}
{"sequence": "QVQLVESGGGLVQAGGSLRLSCAASGRIFRRNAMGWYRQAPGKERELVAAISSSGGRTYYADSVKGRFTISRDNAKNTVYLQMNSLKPEDTAVYYCATRESLEPGYYWGQGTQVTVSS", "polyreactivity (PSR sort gate)": "high polyreactivity"}
{"sequence": "QVQLVESGGGLVQAGGSLRLSCAASGRIFRRYAMGWYREAPGKERELVAAITASGGITYYADSVKGRFTISRDNAKNTVYLQMNSLKPEDTAVYYCAARGSSGYDYWGQGTQVTVSS", "polyreactivity (PSR sort gate)": "high polyreactivity"}
{"sequence": "QVQLVESGGGLVQAGGSLRLSCAASGRIFRRYAMGWYRQAPGKERELVAAISTRGGSTYYADSVKGRFTISRDNAKNTVYLPMNSLKPEDTAVYYCAAGRDPGYNNDDYWGQGTQVTVSS", "polyreactivity (PSR sort gate)": "high polyreactivity"}
{"sequence": "QVQLVESGGGLVQAGGSLRLSCAASGRIFRRYAMGWYRQAPGKERELVADITYGVDSTYYADSVKGRFTISRDNAKNTVYLQMNSLKPEDTAVYYCNADRTEDLLYRFVGVTYGYWGQGTQVSVSS", "polyreactivity (PSR sort gate)": "high polyreactivity"}
{"sequence": "QVQLVESGGGLVQAGGSLRLSCAASGRIFRRYAMGWYRQAPWKERELVAAISTSGVRTYYADSVKGRFTISRDNAKNTVYLQMNSLNPEDTAVYYCATVAGPPYDYWGQGTLVTVSS", "polyreactivity (PSR sort gate)": "high polyreactivity"}
{"sequence": "QVQLVESGGGLVQAGGSLRLSCAASGRIFRSNAMGWYRQAPGKERELLAAISGSGSTTNYADSVKGRITISRDNAKNTVYLQMNSLKPEDTAVYYCATGKRGVSGRGFRYDYWGLGTQVTVSS", "polyreactivity (PSR sort gate)": "high polyreactivity"}
{"sequence": "QVQLVESGGGLVQAGGSLRLSCAASGRIFRSNAMGWYRQAPRKERELVPAITSSDTSTYYADSVKGRFTISRDNAKNTVYLQMKSLKPEDTAVYYCAADFKPTGTNEPKELDYWGQGTQVTVSS", "polyreactivity (PSR sort gate)": "low polyreactivity"}
{"sequence": "QVQLVESGGGLVQAGGSLRLSCAASGRIFRSNARGWYRPAPGKERELVAAISSNGGSTYYADSVKGRFTISRDNAKNTVYLQMNSLKPEDTAVYYCAARVYYPVRYGYWGQGTQVTVSS", "polyreactivity (PSR sort gate)": "high polyreactivity"}
{"sequence": "QVQLVESGGGLVQAGGSLRLSCAASGRIFRSYTMGWYRQAPGKERELVAAISKTGSRTYYADSVKGRFTISRDNAKNTVYLQMNSLKPEDTAVYYCAALFVHSYRDDYWGQGTQVTVSS", "polyreactivity (PSR sort gate)": "high polyreactivity"}
{"sequence": "QVQLVESGGGLVQAGGSLRLSCAASGRIFRTYAMGWYRQAPGKERELVAAISGRGGNTYYADSVKGRFTSSRDNAKNTVYLQMNSLKPEETAVYYCAASKPARDTQQRWVYAGYDYWGQGTQVTVSS", "polyreactivity (PSR sort gate)": "high polyreactivity"}
{"sequence": "QVQLVESGGGLVQAGGSLRLSCAASGRIFRTYAMGWYRQAPGKERELVAAISYSGGSTFYADSVKGRFTISRDNAKNSVYLQMNSLKPESTAVYYCAADSRAKRYYWGQGTQVTVSS", "polyreactivity (PSR sort gate)": "high polyreactivity"}
{"sequence": "QVQLVESGGGLVQAGGSLRLSCAASGRIFRVNSMGWYRQAPGKEREFVAAITKNGGSTYYADSVKGRFTISLDNANNTVYLQMNSLKPEDTAVYYCAVRAWDPYTGKCVYWGQGTQVTVSW", "polyreactivity (PSR sort gate)": "low polyreactivity"}
{"sequence": "QVQLVESGGGLVQAGGSLRLSCAASGRIFRVYAMGWYRQAPGKERELVAAITSGGTTYADSVKGRFTISRDYAKNTVYLQMNSLKPEDTAVYYCAARYYIHRGYDYDYWGQGTQVTVSS", "polyreactivity (PSR sort gate)": "high polyreactivity"}
{"sequence": "QVQLVESGGGLVQAGGSLRLSCAASGRIFRVYAMGWYRQAPGKERQLVAAISYSGGRTFYADSVKGRFTISRDNSKNTVYLQMNSLIPEDTAVYYCAAKSYYTQALPPLDYWGQCTQVTVSS", "polyreactivity (PSR sort gate)": "low polyreactivity"}
{"sequence": "QVQLVESGGGLVQAGGSLRLSCAASGRIFRWNAMGWYRQAPGKERDLVAAISWRGANTYYADSVKGRFTISRDNAKNTVYLQMNSLKPEDTAVYYCARYSYRGSQSDSWGQGTQVTVSS", "polyreactivity (PSR sort gate)": "high polyreactivity"}
{"sequence": "QVQLVESGGGLVQAGGSLRLSCAASGRIFRWYAMGWYRQAPGKERELVAAISSRGGSTYYADSVKGRFTISRDNAKNTVYLQMNSLKPEDTAVYYCAADTSGWQPRYDYWGQGTQVTVSS", "polyreactivity (PSR sort gate)": "high polyreactivity"}
{"sequence": "QVQLVESGGGLVQAGGSLRLSCAASGRIFRWYAMGWYRQAPGKERELVAAISSSGGSTYYADSVKGRFTISRDNAKINVYLQMKSLKPEDTAVYYCNAEAVAYWSVPYNYWGQGTQVTVSS", "polyreactivity (PSR sort gate)": "high polyreactivity"}
{"sequence": "QVQLVESGGGLVQAGGSLRLSCAASGRIFRWYAMGWYRQAPGKERELVAAITQGGGSTYYADSVKGRFTISRDNAKNTVYLQMNSLKPEDTAVYYCAARGRSVGSAGTSRYGYWGQGTQVTVSS", "polyreactivity (PSR sort gate)": "high polyreactivity"}
{"sequence": "QVQLVESGGGLVQAGGSLRLSCAASGRIFRWYTMGWYRQAPGKERELVARISSGGITYYADSVKGPFTISRDNAKNTVYLQMNSLKPEDTAVYYCNTYVSRNFDYWGQGTQLTVSS", "polyreactivity (PSR sort gate)": "high polyreactivity"}
{"sequence": "QVQLVESGGGLVQAGGSLRLSCAASGRIFRYNAKGWYRQAPGKERELVAAISRDGSTYYADSVKGRFTISRDNAKNTVYLQMKSLKPEDTAVYYCAAGYSRRGWRRAYNYWGQGTQVTVSS", "polyreactivity (PSR sort gate)": "high polyreactivity"}
{"sequence": "QVQLVESGGGLVQAGGSLRLSCAASGRIFRYNAMGLYRQAPGKERELVAVITSRGGRTYYADSVKGRFTISRDNAKNTVYLQMNSLKPEDTAVYYCTAKRYRYYRWYFTGKYDYWGQGTQVTVSS", "polyreactivity (PSR sort gate)": "high polyreactivity"}
